Three molecules from patent publication US20050037969A1 (ARBOR VITA, published 2005) can be followed below.

T1: GST-KIAA0303 PDZ domain fusion protein (Homo sapiens (Human), UniProt O15021 1138-1228)
T1 construct: also called K303; not shown: glutathione S-transferase encoded by vector pGEX-3X (Pharmacia)
T1 sequence: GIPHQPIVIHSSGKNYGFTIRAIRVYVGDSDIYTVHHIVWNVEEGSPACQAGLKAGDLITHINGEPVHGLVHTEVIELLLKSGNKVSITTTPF

T2: TAX-IP2L PDZ-GST fusion protein (Homo sapiens (Human), UniProt Q8TF64 107-197)
T2 construct: Order of GST and PDZ part and limits not seen in the excerpts
T2 sequence: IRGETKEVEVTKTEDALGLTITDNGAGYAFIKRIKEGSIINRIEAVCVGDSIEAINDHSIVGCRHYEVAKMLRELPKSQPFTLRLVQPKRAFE

T3: GST-AF6 PDZ domain fusion protein (Homo sapiens (Human), UniProt P55196 1001-1093)
T3 construct: also called af-6 protein; not shown: glutathione S-transferase encoded by vector pGEX-3X (Pharmacia)
T3 sequence: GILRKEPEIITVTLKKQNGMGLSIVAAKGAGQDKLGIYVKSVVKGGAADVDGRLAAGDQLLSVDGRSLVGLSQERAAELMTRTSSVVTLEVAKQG

T4: GST-CASK PDZ domain fusion protein (Homo sapiens, UniProt O14936 486-575)
T4 construct: also called Homo sapiens CASK protein
T4 sequence: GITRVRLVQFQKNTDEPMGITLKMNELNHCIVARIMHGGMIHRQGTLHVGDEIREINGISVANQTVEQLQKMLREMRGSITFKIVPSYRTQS

T5: X11β PDZ-GST fusion protein (Rattus norvegicus (Rat), UniProt O35431 560-745)
T5 construct: Order of GST and PDZ part and limits not seen in the excerpts
T5 chain: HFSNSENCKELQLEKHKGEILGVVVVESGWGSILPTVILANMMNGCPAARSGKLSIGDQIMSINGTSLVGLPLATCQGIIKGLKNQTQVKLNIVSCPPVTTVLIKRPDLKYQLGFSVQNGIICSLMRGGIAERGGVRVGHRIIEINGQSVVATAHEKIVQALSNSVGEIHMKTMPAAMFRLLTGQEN

T6: GST-cytohesin binding protein PDZ domain fusion protein (Homo sapiens (Human), UniProt O60759 74-165)
T6 construct: also called CBP; not shown: glutathione S-transferase encoded by vector pGEX-3X (Pharmacia)
T6 sequence: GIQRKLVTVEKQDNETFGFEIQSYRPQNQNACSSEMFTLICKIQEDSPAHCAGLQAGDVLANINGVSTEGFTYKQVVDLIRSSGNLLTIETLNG

T7: ConEn PDZ-GST fusion protein (Homo sapiens (Human), UniProt Q969H4 193-287)
T7 construct: The label ConEn is not explained in the excerpts
T7 sequence: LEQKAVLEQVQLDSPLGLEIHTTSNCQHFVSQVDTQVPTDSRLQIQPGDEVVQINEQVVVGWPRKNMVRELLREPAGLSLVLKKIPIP

T8: MINT3 PDZ-GST fusion protein
T8 construct: Order of GST and PDZ part and limits not seen in the excerpts
T8 chain: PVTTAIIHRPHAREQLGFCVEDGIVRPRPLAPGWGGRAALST

T9: GEF PDZ-GST fusion protein (Homo sapiens (Human), UniProt Q8TEU7 293-400)
T9 construct: The label GEF is not explained in the excerpts
T9 sequence: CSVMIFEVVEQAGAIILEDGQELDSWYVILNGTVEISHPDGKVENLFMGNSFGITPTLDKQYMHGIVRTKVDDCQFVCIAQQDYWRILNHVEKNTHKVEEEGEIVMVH

T10: GST-DLG5 (p-dlg) PDZ domain fusion protein (Human, UniProt Q8TDM6 1343-1583)
T10 construct: also called Human discs large protein p-dlg; not shown: glutathione S-transferase encoded by vector pGEX-3X (Pharmacia)
T10 sequence: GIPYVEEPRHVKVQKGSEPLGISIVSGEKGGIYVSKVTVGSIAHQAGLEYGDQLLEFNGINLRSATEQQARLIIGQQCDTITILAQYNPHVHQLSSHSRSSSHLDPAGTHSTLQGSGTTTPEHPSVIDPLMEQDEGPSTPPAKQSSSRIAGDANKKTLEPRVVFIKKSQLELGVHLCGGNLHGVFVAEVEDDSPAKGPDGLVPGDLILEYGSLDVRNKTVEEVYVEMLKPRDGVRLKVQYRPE

T11: GST-RGS12 PDZ domain fusion protein (human, UniProt O14924 17-85)
T11 construct: also called human regulator of G-protein signalling 12; not shown: glutathione S-transferase encoded by vector pGEX-3X (Pharmacia)
T11 sequence: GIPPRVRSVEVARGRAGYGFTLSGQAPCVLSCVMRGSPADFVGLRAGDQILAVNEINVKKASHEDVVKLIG

T12: GST-TAX-IP40 PDZ domain fusion protein (human, UniProt Q6B4M5 150-252 (rat entry))
T12 construct: also called TAX40; not shown: glutathione S-transferase encoded by vector pGEX-3X (Pharmacia)
T12 sequence: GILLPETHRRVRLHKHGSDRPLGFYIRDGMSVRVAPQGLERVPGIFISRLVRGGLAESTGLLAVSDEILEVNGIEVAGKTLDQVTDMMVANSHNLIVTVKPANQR

T13: KIAA0807 (PDZ domain)-GST fusion protein (human, UniProt Q6P0Q8 1104-1192)
T13 construct: also called K807; KIAA807; not shown: glutathione S-transferase encoded by vector pGEX-3X (Pharmacia)
T13 sequence: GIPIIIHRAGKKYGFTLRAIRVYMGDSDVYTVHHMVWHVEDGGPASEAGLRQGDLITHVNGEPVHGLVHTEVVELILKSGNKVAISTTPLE

T14: K858 PDZ-GST fusion protein (Homo sapiens (Human), UniProt Q8WWI1 1038-1131)
T14 construct: Order of GST and PDZ part and limits not seen in the excerpts
T14 sequence: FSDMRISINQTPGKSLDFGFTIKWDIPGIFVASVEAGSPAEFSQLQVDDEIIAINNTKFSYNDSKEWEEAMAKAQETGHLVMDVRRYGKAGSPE

B1: CDw137 (4-1BB ILA) C-terminal peptide AA21L (peptide)
peptide: Biotin-QEEDGCSCRFPEEEEGGCEL
modifications: cysteine pairing not given here
notes: Marked (S), sticky peptide with high background; also called CDw137 (4-1BB ILA) (S)
B2: V-gated Ca2+ channel C-terminal peptide AA46L (peptide)
peptide: Biotin-SSGGRARHSYHHPDQDHWC
notes: Marked (S), sticky peptide with high background; also called V-gated Ca2+ channel (S)

Ends that are not written are not given here. * marks the point of attachment. Biotin = O=C1N[C@H]2[C@H](CS[C@H]2CCCCC(=O)*)N1

T15 sequence (Q92743 other isoform, or with tags, fused parts or gaps limits assumed): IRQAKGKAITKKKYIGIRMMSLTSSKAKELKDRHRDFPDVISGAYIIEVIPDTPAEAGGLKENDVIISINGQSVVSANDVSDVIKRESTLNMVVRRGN

The target of one assay is T1, GST-KIAA0303 PDZ domain fusion protein. In words: A/G assays.
Consider B1, for which the binding result is “no binding”.
Take Biotin-YSATYSELEDPGEMSPPIDL (also called FceRlb; FcεRβI) [FceRIb C-terminal peptide AA25L, biotinylated]: the binding result is on record as “no binding”.
In the case of B2, the binding result is given as “no binding”.

A further assay has as its target T2, TAX-IP2L PDZ-GST fusion protein. As to the kind of experiment: A/G assays.
Regarding Biotin-YSATYSELEDPGEMSPPIDL (also called FceRlb; FcεRβI) [FceRIb C-terminal peptide AA25L, biotinylated], the binding result is recorded as “no binding”.

The next assay has as its target T3, GST-AF6 PDZ domain fusion protein. As to the kind of experiment: A/G assays.
In the case of B1, the binding result is recorded as “no binding”.
Turning to Biotin-YSATYSELEDPGEMSPPIDL (also called FceRlb; FcεRβI) [FceRIb C-terminal peptide AA25L, biotinylated], the binding result is “no binding”.
Same read-out and setting: the same measure for B2: “no binding”.

The target in another assay is T4, GST-CASK PDZ domain fusion protein. In words: A/G assays.
As to B1, the binding result is “no binding”.
Take Biotin-YSATYSELEDPGEMSPPIDL (also called FceRlb; FcεRβI) [FceRIb C-terminal peptide AA25L, biotinylated]: the binding result is “no binding”.
Take B2: the binding result is reported as “no binding”.

A further assay deals with T5, X11β PDZ-GST fusion protein. As to the kind of experiment: A/G assays.
With B1, the binding result is recorded as “no binding”.
Consider Biotin-YSATYSELEDPGEMSPPIDL (also called FceRlb; FcεRβI) [FceRIb C-terminal peptide AA25L, biotinylated], for which the binding result is “no binding”.
On to B2, for which the binding result is given as “no binding”.

A further assay concerns the target T6, GST-cytohesin binding protein PDZ …. In words: A/G assays.
Consider B1, for which the binding result is “no binding”.
Biotin-YSATYSELEDPGEMSPPIDL (also called FceRlb; FcεRβI) [FceRIb C-terminal peptide AA25L, biotinylated]: the binding result was “no binding”.
B2: the binding result is given as “no binding”.

A further assay concerns the target T15, NSP PDZ-GST fusion protein (Homo sapiens (Human), UniProt Q92743 370-466).
T15 construct: The label NSP is not explained in the excerpts
As to the kind of experiment: A/G assays.
As to Biotin-YSATYSELEDPGEMSPPIDL (also called FceRlb; FcεRβI) [FceRIb C-terminal peptide AA25L, biotinylated], the binding result is given as “no binding”.

A further assay addresses T7, ConEn PDZ-GST fusion protein. As to the kind of experiment: A/G assays.
On to Biotin-YSATYSELEDPGEMSPPIDL (also called FceRlb; FcεRβI) [FceRIb C-terminal peptide AA25L, biotinylated], for which the binding result is reported as “no binding”.

In another assay the target is T8, MINT3 PDZ-GST fusion protein. As to the kind of experiment: A/G assays.
On to B1, for which the binding result is listed as “no binding”.
Take Biotin-YSATYSELEDPGEMSPPIDL (also called FceRlb; FcεRβI) [FceRIb C-terminal peptide AA25L, biotinylated]: the binding result is “no binding”.
Same read-out and setting: the same measure for B2: “no binding”.

For a further assay, the target named is T9, GEF PDZ-GST fusion protein. As to the kind of experiment: A/G assays.
On to Biotin-YSATYSELEDPGEMSPPIDL (also called FceRlb; FcεRβI) [FceRIb C-terminal peptide AA25L, biotinylated], for which the binding result is on record as “no binding”.

For a further assay, the target named is T10, GST-DLG5 (p-dlg) PDZ domain fusion …. In words: A/G assays.
As for B1, the binding result was “no binding”.
Biotin-YSATYSELEDPGEMSPPIDL (also called FceRlb; FcεRβI) [FceRIb C-terminal peptide AA25L, biotinylated]: the binding result is recorded as “no binding”.
Still for that read-out and setting: the same measure for B2: “no binding”.

The target in another assay is T11, GST-RGS12 PDZ domain fusion protein. As to the kind of experiment: A/G assays.
Regarding B1, the binding result is “no binding”.
On the same count and under the same terms, to Biotin-YSATYSELEDPGEMSPPIDL (also called FceRlb; FcεRβI) [FceRIb C-terminal peptide AA25L, biotinylated] belongs “no binding”.
As to B2, the binding result is given as “no binding”.

For the next assay, the target named is T12, GST-TAX-IP40 PDZ domain fusion protein. In words: A/G assays.
In the case of B1, the binding result is given as “no binding”.
For the molecule Biotin-YSATYSELEDPGEMSPPIDL (also called FceRlb; FcεRβI) [FceRIb C-terminal peptide AA25L, biotinylated], the binding result was “no binding”.
Same read-out and setting: the same measure for B2: “no binding”.

The next assay deals with T13, KIAA0807 (PDZ domain)-GST fusion protein. As to the kind of experiment: A/G assays.
Take B1: the binding result was “no binding”.
On to Biotin-YSATYSELEDPGEMSPPIDL (also called FceRlb; FcεRβI) [FceRIb C-terminal peptide AA25L, biotinylated], for which the binding result is “no binding”.
Regarding B2, the binding result is “no binding”.

A further assay has as its target T14, K858 PDZ-GST fusion protein. As to the kind of experiment: A/G assays.
Turning to B1, the binding result is “no binding”.
With Biotin-YSATYSELEDPGEMSPPIDL (also called FceRlb; FcεRβI) [FceRIb C-terminal peptide AA25L, biotinylated], the binding result was “no binding”.
As for B2, the binding result is recorded as “no binding”.
